Assay results published in patent publication US20260250410A1 (SICHUAN HUIYU PHARMACEUTICAL, published 2026).
Like-named read-outs stand apart in the source and are kept apart here.

Legend:
huCDCP1-his = target: T1, huCDCP1-his (human, UniProt Q9H5V8 30-667, limits assumed); test: SPR (Caterra), antigen immobilized
T1 construct: also called human CDCP1 antigen; not shown: his tag
T1 sequence (looked up): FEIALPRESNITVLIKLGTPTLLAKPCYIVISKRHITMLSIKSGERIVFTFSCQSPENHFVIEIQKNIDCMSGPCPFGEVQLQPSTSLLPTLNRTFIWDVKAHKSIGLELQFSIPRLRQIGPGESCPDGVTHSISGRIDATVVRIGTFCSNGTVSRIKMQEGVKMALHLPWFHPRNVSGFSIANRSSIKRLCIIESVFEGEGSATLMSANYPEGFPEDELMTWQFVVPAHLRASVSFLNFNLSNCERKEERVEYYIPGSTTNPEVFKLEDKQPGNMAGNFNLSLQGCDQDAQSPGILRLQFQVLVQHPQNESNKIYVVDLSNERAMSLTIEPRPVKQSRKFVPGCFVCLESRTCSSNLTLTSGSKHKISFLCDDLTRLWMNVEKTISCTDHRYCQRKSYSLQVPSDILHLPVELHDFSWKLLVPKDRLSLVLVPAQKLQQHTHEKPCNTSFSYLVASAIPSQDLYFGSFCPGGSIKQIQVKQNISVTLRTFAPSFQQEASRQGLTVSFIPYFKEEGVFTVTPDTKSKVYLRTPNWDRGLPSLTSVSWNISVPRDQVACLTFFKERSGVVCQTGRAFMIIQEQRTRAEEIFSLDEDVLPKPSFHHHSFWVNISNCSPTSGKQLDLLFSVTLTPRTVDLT
Protocol: (§1) The candidate antibodies obtained from Example 6 were subjected to gene cloning, constructed into an expression vector for a small amount of expression in CHO cells, and purified with an Fc affinity column (AT Protein A Diamond Plus. No. AA402312). Antibody purity was analyzed by HPLC and determined by Nanodrop. High-throughput affinity assay was carried out for a small amount of antibodies by Caterra. […] At the same time, 2 μg/ml antigen human CDCP1-C and 2 μg/ml human CDCP1-B were used for coating, and the antigen-antibody binding capacity was tested by ELISA for verification.

HuCDCP1-C = target: T2, HuCDCP1-C (human, UniProt Q9H5V8 30-667); test: ELISA, coated antigen
T2 construct: range 30-667; expressed in HEK-293T, purified by Fc/his tag; also called human CDCP1-C; full-length extracellular domain of human CDCP1; not shown: Fc or his tag
T2 sequence (looked up): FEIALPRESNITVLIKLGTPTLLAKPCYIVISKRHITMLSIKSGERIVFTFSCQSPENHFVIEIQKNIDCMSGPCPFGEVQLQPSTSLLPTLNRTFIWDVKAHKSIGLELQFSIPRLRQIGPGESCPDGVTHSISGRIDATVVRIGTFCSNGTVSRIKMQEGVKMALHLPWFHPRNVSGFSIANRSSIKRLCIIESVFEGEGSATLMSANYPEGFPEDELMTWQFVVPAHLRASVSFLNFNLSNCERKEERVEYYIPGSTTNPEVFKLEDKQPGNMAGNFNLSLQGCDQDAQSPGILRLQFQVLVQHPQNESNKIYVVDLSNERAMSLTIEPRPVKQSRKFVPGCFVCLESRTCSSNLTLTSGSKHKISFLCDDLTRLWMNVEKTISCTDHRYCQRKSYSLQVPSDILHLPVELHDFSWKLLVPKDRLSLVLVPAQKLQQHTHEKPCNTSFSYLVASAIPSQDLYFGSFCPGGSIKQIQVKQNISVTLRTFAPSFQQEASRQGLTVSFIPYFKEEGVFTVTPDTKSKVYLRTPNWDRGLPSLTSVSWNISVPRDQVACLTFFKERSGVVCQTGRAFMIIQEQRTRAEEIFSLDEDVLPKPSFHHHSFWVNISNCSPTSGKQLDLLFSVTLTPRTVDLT
Protocol: as §1

[1] = target: T3, human CDCP1 on tumor cells (human, UniProt Q9H5V8 30-836); test: laser confocal microscopy, HCC1806 cells, dye-labeled antibody
T3 construct: whole, on cells; cell line is named under assay or readout
T3 sequence (looked up): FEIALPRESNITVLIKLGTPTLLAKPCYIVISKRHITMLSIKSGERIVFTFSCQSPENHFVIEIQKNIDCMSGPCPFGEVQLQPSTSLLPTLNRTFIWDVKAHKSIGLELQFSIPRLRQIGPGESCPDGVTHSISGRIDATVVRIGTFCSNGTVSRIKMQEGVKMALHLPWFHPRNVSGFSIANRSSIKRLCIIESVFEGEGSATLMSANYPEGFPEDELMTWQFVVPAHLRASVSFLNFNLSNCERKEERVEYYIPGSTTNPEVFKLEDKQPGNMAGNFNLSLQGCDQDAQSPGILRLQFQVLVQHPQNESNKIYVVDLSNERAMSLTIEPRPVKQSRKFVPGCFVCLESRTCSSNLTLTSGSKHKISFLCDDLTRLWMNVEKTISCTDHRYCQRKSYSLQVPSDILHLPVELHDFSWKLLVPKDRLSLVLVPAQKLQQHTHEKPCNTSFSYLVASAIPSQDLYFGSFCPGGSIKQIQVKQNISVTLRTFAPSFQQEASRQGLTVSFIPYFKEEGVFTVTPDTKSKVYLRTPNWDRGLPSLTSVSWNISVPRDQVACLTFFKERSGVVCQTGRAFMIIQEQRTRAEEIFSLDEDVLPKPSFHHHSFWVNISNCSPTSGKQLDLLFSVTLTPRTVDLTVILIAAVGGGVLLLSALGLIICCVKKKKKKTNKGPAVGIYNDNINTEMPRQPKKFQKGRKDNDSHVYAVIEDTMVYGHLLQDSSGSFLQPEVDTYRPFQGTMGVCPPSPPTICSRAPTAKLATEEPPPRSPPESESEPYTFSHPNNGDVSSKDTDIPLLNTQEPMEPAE
Source text: The lysosomes were labeled with red fluorescence, and the relative position changes and colocalization of green fluorescence and red fluorescence in the cells were detected to determine whether the antibodies were colocalized with lysosomes after endocytosis into the cells.

[2] = target: T3, human CDCP1 on tumor cells; test: cell-based or functional assay
[3] = target: T3, human CDCP1 on tumor cells; test: cell-based or functional assay; remark: listed apart in the source
[4] = target: T3, human CDCP1 on tumor cells; test: cell-based or functional assay; remark: listed apart in the source

B1: SB3 (antibody, V domains shown)
VH: DVKLVESGGGLVEPGGSLKLSCAASGFPFSSYTMSWVRQTPEKRLEWVATISSGGIYTYYPDSVKGRFTISRDNAKDTLYLQMSSLRSEDTAVYYCSSPHSYAISYGYFDYWGQGTTLTVSS
VL: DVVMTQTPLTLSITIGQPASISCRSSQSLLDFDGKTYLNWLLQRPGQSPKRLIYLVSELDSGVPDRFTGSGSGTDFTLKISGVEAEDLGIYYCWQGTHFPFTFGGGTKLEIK
notes: single B cell antibody, expressed in CHO
- Kd (huCDCP1-his): 201 pM
- EC50 (HuCDCP1-C): 49 pM

B2: SB4 (antibody, V domains shown)
VH: QVQLQQSGAELVRPGTSVKISCKASGYTFTNYWLGWVKQRPGHGLEWIGDNYPGDNYRNFNEKFKGKATLTTDASSSTAYLQLSSLISEDSAVYFCTRSGGSRYYTMDYWGQGTSVTVSS
VL: DIVMTQAAFSNPVTLGTSASISCRSSRSLLHNNGITYLYWYLQKPGQSPQLLIYQMSNLASGVPDRFHSSGSGTDFTLSISRVEAEDVGVYYCAQNLDLPYTFGGGTKLEIK
notes: as for B1
- Kd (huCDCP1-his): 7660 pM
- EC50 (HuCDCP1-C): 71 pM

B3: 1CP-064 (antibody, V domains shown)
VH: EVKLVESGPGILQPSQTLSLTCSFSGFSLSTSGMGVGWIRQPSGKGLEWLAHIWWDDVKRYNPALKSRLTISKDTSSSQVFLKIASVDTADTATYYCARMGGKVPWFAYWGQGTTVTVSS
VL: DVVMTQTPASLAVSLGQRATISCRASESVDSYGNSFMHWYQQKPGQPPKLLIYLASNLESGVPARFSGSGSRTDFTLTIDPVEADDAATYYCQQNNEDPWTFGGGTKLEIK
notes: murine hybridoma mAb
- binding result [1]: binds

B4: 1CP-062 (antibody, V domains shown)
VH: EVKLVESGPGLVAPSQSLSITCTVSGFSLTTYGVHWVRQPPGKGLEWLVVIWSDGNTTYNSALKSRLSINKDNSKSQVFLKMNSLQTDDTAMYYCAKNYRNYDYAMDYWGQGTTVTVSS
VL: DIVMTQTPASLAVSLGQRATISCRASESVDSYGNSFMHWYQQKPGQPPKLLIYRASNLESGIPARFSGSGSRTDFTLTINPVEADDVATYYCQQSNEDPYTFGGGTKLEIK
notes: murine hybridoma mAb
- binding result [1]: binds

B5: 1CP-125-MMAE (antibody, human IgG1, kappa, V domains shown)
VH: QVQLVQSGAEVKKPGASVKVSCKASGYNFISYWLHWVRQAPGQGLEWMGGIYPGNTDTTYNQKFKGRVTMTADTSTSTVYMELSSLRSEDTAVYYCIRYDYDRGMDYWGQGTLVTVSS
VL: DIQMTQSPSSLSASVGDRVTITCRASEDIYYRLAWYQQKPGKAPKLLISGATALETGVPSRFSGSGSGKDYTFTISSLQPEDIATYYCQHYWNIPWTFGQGTKVEIKR
modifications: vc-MMAE coupled after reduction, sites not stated; DAR 4.3
- IC50 (nM), killing of HCC1806 cells (120 h), CellTiter-Glo [2]: 0.272 nM
- IC50 (nM), killing of HCT116 cells (120 h), CellTiter-Glo [3]: 0.668 nM

B6: SB7 (antibody, V domains shown)
VH: QVQLQQSGPELVSPGESVKISCKGSGYTFTDYAVHWVKQSHSKSLEWIGVKSVYYGITKYSQNFKDKATMTVDKSSSTAYMELARLTSEDSAIYYCARDSYGSSRGYFDYWGQGTTLTVSS
VL: DIKMTQSPSSIYVSPGERVTITCKASQDINSFLSWFQQKPGKSPKTLIYRANRLVDGVPSRFSGSGSGQDYSLTISSLEYEDMGIYYCLQYDEFPRTFGGGTKLEIK
notes: as for B1
- Kd (huCDCP1-his): 1740 pM
- EC50 (HuCDCP1-C): 34 pM

B7: 3B12H5-MMAE (antibody, V domains shown)
VH: EVQLQQSGTVLARPGASVKMSCKASGYSFTIYWVHWVKQRPGQGLEWIGAVYPGNDDTSYNQNFKGKAKLTAVTSATTAYMELSSLTIDDSAVYYCTRHTYDEVFDYWGQGTTVTVSS
VL: DIVMTQSPSSLSVSLGDRVTITCKASEDIYYRLAWYQQKPGNAPRLLISGGTNLEAGIPSRFSGSGSGKDYTLSITSLQTEDVAIYYCQHYWNTPWTFGGGTKLEIK
modifications: vc-MMAE coupled after reduction, sites not stated; DAR 3.2
- IC50 (nM), killing of HCT116 cells (120 h), CellTiter-Glo [4]: 6.87 nM
- IC50 (nM), killing of MDA-MB-231 cells (120 h), CellTiter-Glo [4]: > 40 nM
- IC50 (nM), killing of PC3 cells (96 h), CellTiter-Glo [4]: 0.0225 nM
